Consider four sequences from the supplement of paper PMC5998384.

Data set [1] concerns HeLa Kyoto. Nature of the data set: thermal stability score vs G1/S (z-score of summed log2 fold changes over temperatures); higher = more thermally stable than in G1/S.
Data set [2] deals with HeLa Kyoto. Nature of the data set: solubility change mitosis vs G1/S (difference of NP-40 vs SDS log2 ratios) (log2 ratio difference); higher = more soluble in mitosis.
The test system of data set [3] is HeLa Kyoto. Nature of the data set: solubility in G1/S (NP-40 vs SDS abundance) (log2 ratio); higher = more soluble. Particulars: cell cycle stage: G1/S.
Data set [4] deals with HeLa Kyoto. Nature of the data set: melting temperature (median over replicates), in situ; higher = more thermally stable.
[5] abbreviates: cell cycle stage: early G1 (4.5 h after nocodazole release).
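Throughout, for melting temperature (median over replicates), in situ: HeLa Kyoto cells synchronized by double thymidine or nocodazole block, proteins quantified by TMT10plex mass spectrometry, three independent biological replicates.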
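Throughout, for solubility change mitosis vs G1/S (difference of NP-40 vs SDS log2 ratios): synchronized HeLa Kyoto cells (double thymidine block for G1/S, nocodazole release for mitosis), protein amounts in NP-40 versus SDS lysates quantified by mass spectrometry, three biological replicates.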
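Throughout, for solubility in G1/S (NP-40 vs SDS abundance): HeLa Kyoto cells arrested at G1/S by double thymidine block, proteins quantified by TMT10plex mass spectrometry in mild NP-40 versus SDS extracts, three biological replicates.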
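Throughout, for thermal stability score vs G1/S (z-score of summed log2 fold changes over temperatures): synchronized HeLa Kyoto cells, proteins quantified by TMT10plex mass spectrometry, three biological replicates, mitosis taken 0.5 h after nocodazole release, G1/S directly after double thymidine block.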

Turning to “MRRQWGSAMRAAEQAGCMVSASRAGQPEAGPWSCSGVILSRSPGLVLCHGGIFVPFLRAGSEVLTAAGAVFLPGDSCRDDLRLHVQWAPTAAGPGGGAERGRPGLCTPQCASLEPGPPAPSRGRPLQPRLPAELLLLLSCPAFWAHFARLFGDEAAEQWRFSSAARDDEVSEDEEADQLRALGWFALLGVRLGQEEVEEERGPAMAVSPLGAVPKGAPLLVCGSPFGAFCPDIFLNTLSCGVLSNVAGPLLLTDARCLPGTEGGGVFTARPAGALVALVVAPLCWKAGEWVGFTLLCAAAPLFRAARDALHRLPHSTAALAALLPPEVGVPWGLPLRDSGPLWAAAAVLVECGTVWGSGVAVAPRLVVTCRHVSPREAARVLVRSTTPKSVAIWGRVVFATQETCPYDIAVVSLEEDLDDVPIPVPAEHFHEGEAVSVVGFGVFGQSCGPSVTSGILSAVVQVNGTPVMLQTTCAVHSGSSGGPLFSNHSGNLLGIITSNTRDNNTGATYPHLNFSIPITVLQPALQQYSQTQDLGGLRELDRAAEPVRVVWRLQRPLAEAPRSKL [TYSND1]”, the figures for the thermal stability score with HeLa Kyoto [1] (setting [5]) and in the data set on HeLa Kyoto [1] (cell cycle stage: mitosis) were -2.49 and -2.64, respectively. Also, the “solubility change mitosis (log2)” value with HeLa Kyoto [2] stood at 0.0273. Besides, the “solubility in G1/S (log2)” value in the data set on HeLa Kyoto [3] is -0.163. Besides, the melting temperature worked out at 55.1 °C in the data set on HeLa Kyoto [4] (cell cycle stage: G1/S) and 54 °C in the data set on HeLa Kyoto [4] (cell cycle stage: mitosis).

Consider “MRSLGANMAAALRAAGVLLRDPLASSSWRVCQPWRWKSGAAAAAVTTETAQHAQGAKPQVQPQKRKPKTGILMLNMGGPETLGDVHDFLLRLFLDRDLMTLPIQNKLAPFIAKRRTPKIQEQYRRIGGGSPIKIWTSKQGEGMVKLLDELSPNTAPHKYYIGFRYVHPLTEEAIEEMERDGLERAIAFTQYPQYSCSTTGSSLNAIYRYYNQVGRKPTMKWSTIDRWPTHHLLIQCFADHILKELDHFPLEKRSEVVILFSAHSLPMSVVNRGDPYPQEVSATVQKVMERLEYCNPYRLVWQSKVGPMPWLGPQTDESIKGLCERGRKNILLVPIAFTSDHIETLYELDIEYSQVLAKECGVENIRRAESLNGNPLFSKALADLVHSHIQSNELCSKQLTLSCPLCVNPVCRETKSFFTSQQL [FECH]”, for which the results for the thermal stability score in the data set on HeLa Kyoto [1] (setting [5]) and in the data set on HeLa Kyoto [1] (cell cycle stage: mitosis) were -0.37 and -0.327, respectively. For the same sequence, the “solubility change mitosis (log2)” value with HeLa Kyoto [2] is -0.0764. Further, the “solubility in G1/S (log2)” value in the data set on HeLa Kyoto [3] stood at 0.25. Also, the melting temperature with HeLa Kyoto [4] (cell cycle stage: G1/S) was 51.9 °C; in the data set with HeLa Kyoto [4] (cell cycle stage: mitosis) it was 53.4 °C.

Consider “MRTAGRDPVPRRSPRWRRAVPLCETSAGRRVTQLRGDDLRRPATMKGKERSPVKAKRSRGGEDSTSRGERSKKLGGSGGSNGSSSGKTDSGGGSRRSLHLDKSSSRGGSREYDTGGGSSSSRLHSYSSPSTKNSSGGGESRSSSRGGGGESRSSGAASSAPGGGDGAEYKTLKISELGSQLSDEAVEDGLFHEFKRFGDVSVKISHLSGSGSGDERVAFVNFRRPEDARAAKHARGRLVLYDRPLKIEAVYVSRRRSRSPLDKDTYPPSASVVGASVGGHRHPPGGGGGQRSLSPGGAALGYRDYRLQQLALGRLPPPPPPPLPRDLERERDYPFYERVRPAYSLEPRVGAGAGAAPFREVDEISPEDDQRANRTLFLGNLDITVTESDLRRAFDRFGVITEVDIKRPSRGQTSTYGFLKFENLDMSHRAKLAMSGKIIIRNPIKIGYGKATPTTRLWVGGLGPWVPLAALAREFDRFGTIRTIDYRKGDSWAYIQYESLDAAHAAWTHMRGFPLGGPDRRLRVDFADTEHRYQQQYLQPLPLTHYELVTDAFGHRAPDPLRGARDRTPPLLYRDRDRDLYPDSDWVPPPPPVRERSTRTAATSVPAYEPLDSLDRRRDGWSLDRDRGDRDLPSSRDQPRKRRLPEESGGRHLDRSPESDRPRKRHCAPSPDRSPELSSSRDRYNSDNDRSSRLLLERPSPIRDRRGSLEKSQGDKRDRKNSASAERDRKHRTTAPTEGKSPLKKEDRSDGSAPSTSTASSKLKSPSQKQDGGTAPVASASPKLCLAWQGMLLLKNSNFPSNMHLLQGDLQVASSLLVEGSTGGKVAQLKITQRLRLDQPKLDEVTRRIKVAGPNGYAILLAVPGSSDSRSSSSSAASDTATSTQRPLRNLVSYLKQKQAAGVISLPVGGNKDKENTGVLHAFPPCEFSQQFLDSPAKALAKSEEDYLVMIIVRGFGFQIGVRYENKKRENLALTLL [RBM15]”, for which the thermal stability score came to 2.61 in the data set with HeLa Kyoto [1] (setting [5]) and 6.38 in the data set on HeLa Kyoto [1] (cell cycle stage: mitosis). For the same sequence, the “solubility change mitosis (log2)” value in the data set with HeLa Kyoto [2] amounted to 0.598. Also, the “solubility in G1/S (log2)” value with HeLa Kyoto [3] is -0.606. For the same sequence, the melting temperature was found to be 46.7 °C in the data set on HeLa Kyoto [4] (cell cycle stage: G1/S) and 48.7 °C with HeLa Kyoto [4] (cell cycle stage: mitosis).

With “MRVAAATAAAGAGPAMAVWTRATKAGLVELLLRERWVRVVAELSGESLSLTGDAAAAELEPALGPAAAAFNGLPNGGGAGDSLPGSPSRGLGPPSPPAPPRGPAGEAGASPPVRRVRVVKQEAGGLGISIKGGRENRMPILISKIFPGLAADQSRALRLGDAILSVNGTDLRQATHDQAVQALKRAGKEVLLEVKFIREVTPYIKKPSLVSDLPWEGAAPQSPSFSGSEDSGSPKHQNSTKDRKIIPLKMCFAARNLSMPDLENRLIELHSPDSRNTLILRCKDTATAHSWFVAIHTNIMALLPQVLAELNAMLGATSTAGGSKEVKHIAWLAEQAKLDGGRQQWRPVLMAVTEKDLLLYDCMPWTRDAWASPCHSYPLVATRLVHSGSGCRSPSLGSDLTFATRTGSRQGIEMHLFRVETHRDLSSWTRILVQGCHAAAELIKEVSLGCMLNGQEVRLTIHYENGFTISRENGGSSSILYRYPFERLKMSADDGIRNLYLDFGGPEGELTMDLHSCPKPIVFVLHTFLSAKVTRMGLLV [SNTB2]”, the thermal stability score with HeLa Kyoto [1] (setting [5]) came to 0.506; in the data set with HeLa Kyoto [1] (cell cycle stage: mitosis) it was 0.99. Moreover, the “solubility change mitosis (log2)” value with HeLa Kyoto [2] was found to be 0.0092. Further, in the data set on HeLa Kyoto [3], the “solubility in G1/S (log2)” value is -0.0262. The melting temperature came out at 49.4 °C in the data set on HeLa Kyoto [4] (cell cycle stage: G1/S) and 50.3 °C with HeLa Kyoto [4] (cell cycle stage: mitosis).
